The values that follow come from patent publication US20170342168A1 (Hoffmann-La Roche, published 2017).

B1: IgG1 Fc-region with L234A/L235A/P329G and H310A/H433A/Y436A (other)
chain: DKTHTCPPCPAPEAAGGPSVFLFPPKPKDTLMISRTPEVTCVVVDVSHEDPEVKFNWYVDGVEVHNAKTKPREEQYNSTYRVVSVLTVLAQDWLNGKEYKCKVSNKALGAPIEKTISKAKGQPREPQVYTLPPSRDELTKNQVSLTCLVKGFYPSDIAVEWESNGQPENNYKTTPPVLDSDGSFFLYSKLTVDKSRWQQGNVFSCSVMHEALANHATQKSLSLSPGK
notes: Symmetric mutations in both Fc chains; also called HHY-AAA
B2: IgG1 Fc-region with L234A/L235A/P329G and I253A/H310A/H435A (other)
chain: DKTHTCPPCPAPEAAGGPSVFLFPPKPKDTLMASRTPEVTCVVVDVSHEDPEVKFNWYVDGVEVHNAKTKPREEQYNSTYRVVSVLTVLAQDWLNGKEYKCKVSNKALGAPIEKTISKAKGQPREPQVYTLPPSRDELTKNQVSLTCLVKGFYPSDIAVEWESNGQPENNYKTTPPVLDSDGSFFLYSKLTVDKSRWQQGNVFSCSVMHEALHNAYTQKSLSLSPGK
notes: Symmetric mutations in both Fc chains; also called IHH-AAA
B3: IgG1 Fc-region with L234A/L235A/P329G and I253A/H435A (other)
chain: DKTHTCPPCPAPEAAGGPSVFLFPPKPKDTLMASRTPEVTCVVVDVSHEDPEVKFNWYVDGVEVHNAKTKPREEQYNSTYRVVSVLTVLHQDWLNGKEYKCKVSNKALGAPIEKTISKAKGQPREPQVYTLPPSRDELTKNQVSLTCLVKGFYPSDIAVEWESNGQPENNYKTTPPVLDSDGSFFLYSKLTVDKSRWQQGNVFSCSVMHEALHNAYTQKSLSLSPGK
notes: Symmetric mutations in both Fc chains
B4: IgG1 Fc-region with L234A/L235A/P329G and I253A/H310A (other)
chain: DKTHTCPPCPAPEAAGGPSVFLFPPKPKDTLMASRTPEVTCVVVDVSHEDPEVKFNWYVDGVEVHNAKTKPREEQYNSTYRVVSVLTVLAQDWLNGKEYKCKVSNKALGAPIEKTISKAKGQPREPQVYTLPPSRDELTKNQVSLTCLVKGFYPSDIAVEWESNGQPENNYKTTPPVLDSDGSFFLYSKLTVDKSRWQQGNVFSCSVMHEALHNHYTQKSLSLSPGK
notes: as for B3
B5: IgG1 Fc-region with L234A/L235A/P329G and H310A/Y436A (other)
chain: DKTHTCPPCPAPEAAGGPSVFLFPPKPKDTLMISRTPEVTCVVVDVSHEDPEVKFNWYVDGVEVHNAKTKPREEQYNSTYRVVSVLTVLAQDWLNGKEYKCKVSNKALGAPIEKTISKAKGQPREPQVYTLPPSRDELTKNQVSLTCLVKGFYPSDIAVEWESNGQPENNYKTTPPVLDSDGSFFLYSKLTVDKSRWQQGNVFSCSVMHEALHNHATQKSLSLSPGK
notes: as for B3
B6: IgG1 Fc-region with L234A/L235A/P329G and H310A/H435A (other)
chain: DKTHTCPPCPAPEAAGGPSVFLFPPKPKDTLMISRTPEVTCVVVDVSHEDPEVKFNWYVDGVEVHNAKTKPREEQYNSTYRVVSVLTVLAQDWLNGKEYKCKVSNKALGAPIEKTISKAKGQPREPQVYTLPPSRDELTKNQVSLTCLVKGFYPSDIAVEWESNGQPENNYKTTPPVLDSDGSFFLYSKLTVDKSRWQQGNVFSCSVMHEALHNAYTQKSLSLSPGK
notes: as for B3

The target in the experiment is T1, human neonatal Fc-receptor (FcRn) (human, UniProt P55899 24-297; P61769 21-119, limits assumed).
T1 construct: also called the receptor
T1 sequence (P55899 24-297 limits assumed, chain 1 of 2): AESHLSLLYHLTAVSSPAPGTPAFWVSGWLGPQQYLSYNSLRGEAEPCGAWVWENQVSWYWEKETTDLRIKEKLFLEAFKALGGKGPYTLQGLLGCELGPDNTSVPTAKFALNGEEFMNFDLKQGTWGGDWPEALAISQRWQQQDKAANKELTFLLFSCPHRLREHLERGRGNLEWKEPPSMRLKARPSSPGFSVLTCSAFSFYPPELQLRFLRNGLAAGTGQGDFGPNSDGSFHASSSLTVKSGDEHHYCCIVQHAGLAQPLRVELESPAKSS
T1 sequence (P61769 21-119 limits assumed, chain 2 of 2): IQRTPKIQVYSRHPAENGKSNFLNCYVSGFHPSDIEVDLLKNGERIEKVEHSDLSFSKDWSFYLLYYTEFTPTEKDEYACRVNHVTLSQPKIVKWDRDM
As to the kind of experiment: FcRn affinity chromatography.
With “anti-HER2 antibody with symmetric mutation N434H”, the retention time was 52 min. On the same count and under the same terms, the figure for “anti-HER2 antibody with symmetric mutation T256H” is 46 min. Regarding “anti-HER2 antibody with symmetric mutation E430H”, the retention time came out at 46.4 min. On the same count and under the same terms, the figure for “anti-HER2 antibody with symmetric mutation K290H” is 46.2 min; for “anti-HER2 antibody with symmetric mutation K317H” it is 46.3 min; for “anti-HER2 antibody with symmetric mutation Q311H” it is 46.3 min. Still for that read-out and setting: the figure for “anti-HER2 antibody with symmetric mutation K288E” is 45.2 min; for “anti-HER2 antibody with symmetric mutation R255D” it is 41.4 min; for anti-HER2 antibody, wild-type it is 46.3 min.

With “anti-HER2 antibody with symmetric mutation L309H”, the retention time was 45.5 min. The same measure, in the same setting: the figure for “anti-HER2 antibody with symmetric mutation E258H” is 45.6 min. “anti-HER2 antibody with symmetric mutation D98E” showed a retention time of 46.2 min.

B1: the binding result is “no binding (tested: retention time below 3 minutes)”. On the same count and under the same terms, the entry for B2 is “no binding (tested: retention time below 3 minutes)”; for B3 it is “no binding (tested: retention time below 3 minutes)”; for B4 it is “no binding (tested: retention time below 3 minutes)”. On the same count and under the same terms, the entry for B5 is “no binding (tested: retention time below 3 minutes)”; for B6 it is “no binding (tested: retention time below 3 minutes)”.
